This experiment addresses nominally empty recombinant adeno-associated virus 5 capsid (adeno-associated virus 5 (recombinant, rAAV5)) (UniProt Q9YIJ1). Nature of the experiment: SEC-MALS; Superose 6 Increase (10/300), phosphate-buffered saline as mobile phase, 0.8 mL/min, column and detectors at 30 °C, samples kept at 4 °C before injection; RI, UV and RALS/LALS detection; whole capsid with whole capsid (dimer of capsids).

For the substance “nominally empty recombinant adeno-associated virus 5 capsid (from UniProt Q9YIJ1 1-724) (complex)”, the fraction of sample (%) in the dimer peak was 7.2% and the stoichiometry N (usually a count of units in the complex or per binding partner) stood at 2.

The record behind these values is publication PMC8074050.
